Test results published in article PMC7521798 (Molecular Biology of the Cell, 2020).

Target: GFP-IQGAP1 ∆GRD (1004–1237 aa deleted) (UniProt P46940 1-1657, 1004–1237 aa deleted)
Assay: co-IP

B1: R-ras (natural protein, mouse (endogenous in NIH-3T3 and MEFs), UniProt P10833 1-218, looked up)
chain: MSSGAASGTGRGRPRGGGPGPRDPPPGETHKLVVVGGGGVGKSALTIQFIQSYFVSDYDPTIEDSYTKICTVDGIPARLDILDTAGQEEFGAMREQYMRAGNGFLLVFAINDRQSFNEVGKLFTQILRVKDRDDFPIVLVGNKADLENQRQVLRSEASSFSASHHMTYFEASAKLRLNVDEAFEQLVRAVRKYQEQELPPSPPSAPRKKDGGCPCVLL
fold less association with R-ras than IQGAP1, IQGAP1 ∆IQ or IQGAP1 ∆WW: 5 fold
